Patent US20030186377

System: T-bet protein (modified forms used as substrates in in vitro kinase assays)

Row | Substance | phosphorylation in in vitro kinase assay
1 | Rlk/Txk | Both the ITK and Rlk/txk kinases have been found to phosphorylate T-bet in vitro.
2 | ITK | Both the ITK and Rlk/txk kinases have been found to phosphorylate T-bet in vitro.
